Among the data in PMC9354048 are stoichiometry N values, retold here.

This assay has as its target (opt)EsTKγ (Eptatretus stouti thread keratin γ, from a codon-optimised gene) (Eptatretus stouti). Kind of assay: co-assembly by dialysis out of urea, gel separated by ultrafiltration centrifugation and analysed by SDS-PAGE; crudely purified proteins, each 1.0 mg/ml in 8 M urea, 0.02 M NaH2PO4, 0.5 M NaCl, mixed 1:1; gradient dialysis 8 M to 4 M to 2 M to 0 M urea in 2 mM Tris, 1 mM DTT, pH 9, 4°C, 72 h; concentrated in a 10 kDa ultrafiltration tube; gel-like product picked up, diluted and run on SDS-PAGE.

In general, stoichiometry N refers to the number of molecules, sites or subunits per partner or assembly. “(opt)EsTKα (Eptatretus stouti thread keratin α, from a codon-optimised gene) (natural protein)”: the stoichiometry N is 1.
